Square brackets hold non-standard residues; d marks the D form. d2Nal = N[C@H](Cc1ccc2ccccc2c1)C(=O)O

Experiment [1] deals with T1, mMC4R-HaloTag fusion protein (mouse, UniProt P56450 1-332, HaloTag NanoBRET 618 ligand bound to the HaloTag).
T1 construct: whole, on cells; not shown: HaloTag on the C-terminus
As to the kind of experiment: NanoBRET in transiently transfected cells; basal signal with assay buffer set as 100%. On the technique in general: Bioluminescence resonance energy transfer reports proximity on the nanometre scale.

Experiment [2] has as its target human melanocortin-4 receptor (hMC4R), stably expressed in HEK293 cells (human, UniProt P32245 1-332). Description: cell-based or functional assay.
For experiment [3], the target named is hMC4R PRESTO-Tango plasmid construct, transiently expressed in HTLA cells (human, UniProt P32245 1-332). As to the kind of experiment: cell-based or functional assay.
Sequence of hMC4R PRESTO-Tango plasmid construct, transiently expressed in HTLA cells (P32245 whole entry): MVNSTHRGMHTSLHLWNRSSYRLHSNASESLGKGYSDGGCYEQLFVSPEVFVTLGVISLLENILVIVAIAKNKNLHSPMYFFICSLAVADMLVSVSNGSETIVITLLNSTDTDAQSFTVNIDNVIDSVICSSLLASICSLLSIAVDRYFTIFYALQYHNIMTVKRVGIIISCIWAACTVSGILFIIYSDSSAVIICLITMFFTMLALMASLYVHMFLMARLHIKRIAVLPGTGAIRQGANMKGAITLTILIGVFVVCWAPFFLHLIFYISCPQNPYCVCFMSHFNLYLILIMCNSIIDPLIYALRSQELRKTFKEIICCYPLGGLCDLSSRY

Sequence of human melanocortin-4 receptor (hMC4R), stably expressed in HEK293 cells (P32245 whole entry): as above

B1: mMC4R-NanoLuc fusion protein (receptor, mouse, UniProt P56450 1-332, looked up)
chain: MNSTHHHGMYTSLHLWNRSSYGLHGNASESLGKGHPDGGCYEQLFVSPEVFVTLGVISLLENILVIVAIAKNKNLHSPMYFFICSLAVADMLVSVSNGSETIVITLLNSTDTDAQSFTVNIDNVIDSVICSSLLASICSLLSIAVDRYFTIFYALQYHNIMTVRRVGIIISCIWAACTVSGVLFIIYSDSSAVIICLISMFFTMLVLMASLYVHMFLMARLHIKRIAVLPGTGTIRQGTNMKGAITLTILIGVFVVCWAPFFLHLLFYISCPQNPYCVCFMSHFNLYLILIMCNAVIDPLIYALRSQELRKTFKEIICFYPLGGICELSSRY
notes: whole, on cells; not shown: NanoLuc on the C-terminus
As for B1, in experiment [1], the binding result is reported as “binds”.

B2: equal mixture of tetrapeptides CJL-1-14+CJL-1-80 (other)
peptide 1: Ac-H[dF]RW-NH2
peptide 2: Ac-H[d2Nal]RW-NH2
modifications: also: 1:1 mixture of two separate peptides
For the molecule B2, the “cAMP signaling (AlphaScreen), EC50” value in experiment [2] came to 1.9 nM. For the molecule Ac-H[d2Nal]RW-NH2 [CJL-1-80, Ac-His-DNal(2')-Arg-Trp-NH2], the “β-arrestin recruitment, response at 10 µM relative to the maximal efficacy of NDP-MSH” value in experiment [3] was found to be 30%.
